First the molecules themselves.
B1: CD2-associated protein, residues 1 to 59; numbered along this chain, Q9Y5K6 (parent)
chain: MVDYIVEYDYDAVHDDELTIRVGEIIRNVKKLQEEGWLEGELNGRRGMFPDNFVKEIKR

± gives the uncertainty stated by the source.

Variants of B1 are the subject of the data set. The experiment in a line: abundance fitness (aPCA) (normalised: wild type 0, dead -1); higher = more abundant; growth selection in yeast, the domain comes from the species named. Conditions: Homo sapiens.
For MVDYIVEYDYDAVHDDELTIRVGEIIRNVKKLQEEGWLEGELNGRRGMFPDNFPKEIKR [V54P], the abundance fitness is -0.604 ± 0.32.
In the case of MVDYIVEYDYDAVHDDELTIRVGEICRNVKKLQEEGWLEGELNGRRGMFPDNFVKEIKR [I26C] it was -0.517 ± 0.13; in that of MVDYIVTYDYDAVHDDELTIRVGEIIRNVKKLQEEGWLEGELNGRRGMFPDNFVKEIKR [E7T], 0.028 ± 0.074.
The same measure for MVDYIVEYDYDAVHDDELTIRVGEIIRNVKRLQEEGWLEGELNGRRGMFPDNFVKEIKR [K31R]: -0.069 ± 0.092; for MVDYIVEYDYDAVHDDELTIRVGEIIRNVKQLQEEGWLEGELNGRRGMFPDNFVKEIKR [K31Q]: -0.07 ± 0.1; for MVDYIVEYDYDAVHDDELTIRVGEIIRNVKKLQEEGWLEGELNGKRGMFPDNFVKEIKR [R45K]: -0.075 ± 0.23.
For the variant MVDYIVEYDYDAVHDDELTIRVGEIIRNVKKLQEEGWLEGELNGARGMFPDNFVKEIKR [R45A], the abundance fitness is -0.27 ± 0.14.
In the case of MVDYIVEYDHDAVHDDELTIRVGEIIRNVKKLQEEGWLEGELNGRRGMFPDNFVKEIKR [Y10H] it was -0.257 ± 0.28.
For the variant MVDYIVEYDQDAVHDDELTIRVGEIIRNVKKLQEEGWLEGELNGRRGMFPDNFVKEIKR [Y10Q], the abundance fitness was -1.18 ± 0.31.
Turning to MVDYIVEYDADAVHDDELTIRVGEIIRNVKKLQEEGWLEGELNGRRGMFPDNFVKEIKR [Y10A], the abundance fitness was -0.787 ± 0.14.
The same measure for MVDYIVEYDLDAVHDDELTIRVGEIIRNVKKLQEEGWLEGELNGRRGMFPDNFVKEIKR [Y10L]: -0.782 ± 0.1; for MVDYIVEYDPDAVHDDELTIRVGEIIRNVKKLQEEGWLEGELNGRRGMFPDNFVKEIKR [Y10P]: -0.904 ± 0.26; for MVDYIVEYDEDAVHDDELTIRVGEIIRNVKKLQEEGWLEGELNGRRGMFPDNFVKEIKR [Y10E]: -0.787 ± 0.19.
Turning to MVDYIVEYDIDAVHDDELTIRVGEIIRNVKKLQEEGWLEGELNGRRGMFPDNFVKEIKR [Y10I], the abundance fitness is -0.812 ± 0.37.
In the case of MVDYIVEYDYDAVHDDELTIRVGEIIRNVKKLQEEGLLEGELNGRRGMFPDNFVKEIKR [W37L] it was -0.273 ± 0.075; in that of MVDYIVEYDYDAVHDDELTIRVGEIIRNVKKLQEEGQLEGELNGRRGMFPDNFVKEIKR [W37Q], -0.32 ± 0.12.
The same measure for MVDYIVEYDYDAWHDDELTIRVGEIIRNVKKLQEEGWLEGELNGRRGMFPDNFVKEIKR [V13W]: -0.197 ± 0.13.
Turning to MVDYIVEYDYDAMHDDELTIRVGEIIRNVKKLQEEGWLEGELNGRRGMFPDNFVKEIKR [V13M], the abundance fitness is -0.058 ± 0.18.
For the variant MVDYIVEYDYDALHDDELTIRVGEIIRNVKKLQEEGWLEGELNGRRGMFPDNFVKEIKR [V13L], the abundance fitness was -0.188 ± 0.095.
The same measure for MVDYIVEYDYDAHHDDELTIRVGEIIRNVKKLQEEGWLEGELNGRRGMFPDNFVKEIKR [V13H]: -0.358 ± 0.47; for MVDYIVEYDYDAVHDDELTIRVGEIIRNVKKLQEEGWLEGELNGRRGDFPDNFVKEIKR [M48D]: -0.573 ± 0.23.
In the case of MVDYIVEYDYDAVHDDELTIRVGEIIRNVKKLQEEGWLEGELNGRRGSFPDNFVKEIKR [M48S] it was 0.048 ± 0.083; in that of MVDYIVEYDYDAVHDDQLTIRVGEIIRNVKKLQEEGWLEGELNGRRGMFPDNFVKEIKR [E17Q], 0.146 ± 0.14; in that of MVDYIVEYDYDAVHDDRLTIRVGEIIRNVKKLQEEGWLEGELNGRRGMFPDNFVKEIKR [E17R], -0.567 ± 0.14.
The same measure for MVDYIVEYDYDAVHDDTLTIRVGEIIRNVKKLQEEGWLEGELNGRRGMFPDNFVKEIKR [E17T]: -0.461 ± 0.27.
As to MVDYIVEYDYDAVHDFELTIRVGEIIRNVKKLQEEGWLEGELNGRRGMFPDNFVKEIKR [D16F], the abundance fitness is -0.297 ± 0.15.
Consider MVDYIVEYDYDAVHDQELTIRVGEIIRNVKKLQEEGWLEGELNGRRGMFPDNFVKEIKR [D16Q], for which the abundance fitness was -0.12 ± 0.15.
In the case of MVDYIVEYDYDAVHDDELTIRVGEIIRNVKKLQEEGWLEGELNGRRGMFPCNFVKEIKR [D51C] it was -0.195 ± 0.45; in that of MVDYIVEYDYDAVHDDELTIRVGEIIRNVKKLQEEGWLEGELNGRRGMFPWNFVKEIKR [D51W], -0.425 ± 0.41.
The same measure for MVDYIVEYDYDAVHDDELTIRVGEIIRNVKKLQEEGWLEGELNGRRGMFPANFVKEIKR [D51A]: 0.04 ± 0.059; for MVDYIVEYDYDAVHDDELTIRVGEIIRNVKKAQEEGWLEGELNGRRGMFPDNFVKEIKR [L32A]: 0.118 ± 0.092.
MVDYIVEYDYDAVHDDELTIRVGEIIRNVKKNQEEGWLEGELNGRRGMFPDNFVKEIKR [L32N]: the abundance fitness was -0.078 ± 0.16.
The same measure for MVDYIVEYDYDAVHDDELTIRVGEIIRNVKKGQEEGWLEGELNGRRGMFPDNFVKEIKR [L32G]: -0.013 ± 0.079; for MVDYIVEYDYDAVHDDELQIRVGEIIRNVKKLQEEGWLEGELNGRRGMFPDNFVKEIKR [T19Q]: -0.498 ± 0.14; for MVDYIVEYDYDAVHDDELTIRVGEIIRNVKKLQEEGWLEGEVNGRRGMFPDNFVKEIKR [L42V]: -0.146 ± 0.14.
MVDYIVEYDYDAVHDDESTIRVGEIIRNVKKLQEEGWLEGELNGRRGMFPDNFVKEIKR [L18S]: the abundance fitness was -0.651 ± 0.23.
In the case of MVDYIVEYDYDAVHDDELTIRVGEIIRNVKKLQEEIWLEGELNGRRGMFPDNFVKEIKR [G36I] it was -0.632 ± 0.13; in that of MVDYIVEYDYDAVHDDELTIRVGEIIRNVKKLQEEGWLEGELNGRRGMFPDNFVKMIKR [E56M], -0.152 ± 0.21.
The same measure for MVDRIVEYDYDAVHDDELTIRVGEIIRNVKKLQEEGWLEGELNGRRGMFPDNFVKEIKR [Y4R]: -0.404 ± 0.091; for MVDQIVEYDYDAVHDDELTIRVGEIIRNVKKLQEEGWLEGELNGRRGMFPDNFVKEIKR [Y4Q]: -0.687 ± 0.39; for MVDYIVEYDYDAVHDDELTIRVGEIIRNVKKLQEEGWLEGELNGRRGMLPDNFVKEIKR [F49L]: -0.251 ± 0.09.
The same measure for MVDYIVEYDYDAVHDDELTIRVGEIIRNVKKLQEEGWLEGELNGRRGMFPDNFVPEIKR [K55P]: -0.507 ± 0.37; for MVDYIVEYDYDAVHDDELTIRVGEIIRNVKKLQEEGWLEGELNGRRGMFPDNFVCEIKR [K55C]: -0.027 ± 0.15.
Regarding MVDYIVEYDYDAVHFDELTIRVGEIIRNVKKLQEEGWLEGELNGRRGMFPDNFVKEIKR [D15F], the abundance fitness is -0.325 ± 0.09.
With MVDYIVEYDYDAVHDDELTIRVGEIIRNVKKLQREGWLEGELNGRRGMFPDNFVKEIKR [E34R], the abundance fitness was found to be 0.018 ± 0.077.
